Source: patent US20250263469A1 (HOSPITAL FOR SICK CHILDREN, published 2025)

Columns and labels:
[1] = target: SARS-CoV-2 Spike D614G on pseudotyped virus (SARS-CoV-2, UniProt P0DTC2 14-1273); assay: cell-based or functional assay
[2] = target: SARS-CoV-2 Spike V483A on pseudotyped virus (SARS-CoV-2, UniProt P0DTC2 14-1273); assay: cell-based or functional assay
[3] = target: SARS-CoV-2 Spike L452R on pseudotyped virus (SARS-CoV-2, UniProt P0DTC2 14-1273); assay: cell-based or functional assay
[4] = target: SARS-CoV-2 Spike A475V on pseudotyped virus (SARS-CoV-2, UniProt P0DTC2 14-1273); assay: cell-based or functional assay
[5] = target: SARS-CoV-2 Spike N439K on pseudotyped virus (SARS-CoV-2, UniProt P0DTC2 14-1273); assay: cell-based or functional assay
[6] = target: T1, SARS-CoV-2 receptor binding domain (RBD), wild type (BEI NR52309) (SARS-CoV-2, UniProt P0DTC2 319-541); assay: BLI competition on His-tagged RBD, signal of the 2nd Ab after 1st Ab 298
[7] = target: T1, SARS-CoV-2 receptor binding domain …; assay: BLI competition on His-tagged RBD, signal of the 2nd Ab after 1st Ab 324
[8] = target: T1, SARS-CoV-2 receptor binding domain …; assay: BLI competition on His-tagged RBD, signal of the 2nd Ab after 1st Ab 236
[9] = target: Spike of authentic SARS-CoV-2/SB2-P4-PB virus (SARS-CoV-2, UniProt P0DTC2 14-1273); assay: cell-based or functional assay

| Binder | Potency change vs WT PsV [1] | Potency change vs WT PsV [2] | IC50 (PsV neutralisation) [3] | Potency change vs WT PsV [4] | Potency change vs WT PsV [5] | RBD binding [6] | RBD binding [7] | RBD binding [8] | IC50 SARS-CoV2/SB2-P4-PB (authentic virus), IgG [9] | Potency change vs WT PsV [3] |
| --- | --- | --- | --- | --- | --- | --- | --- | --- | --- | --- |
| mAb 46 (antibody, V domains shown) VH: EVQLLESGGGLVQPGRSLRLSCAASGFTFSSYAMSWVRQAPGKGLEWVSTIYSGGSTYYADSVKGRFTISRDNSKNTLYLQMNSLRAEDTAVYYCARGDSRDAFDIWGQGTMVTVSS VL: DIQMTQSPSSLSASVGDRVTITCRASQSISSWLAWYQQKPGKAPKLLIYDASNLETGVPSRFSGSGSGTDFTLTISSLQPEDFATYYCQQSYSTPFTFGPGTKVDIKR | 1.9 fold | 2 fold | > 100 µg/mL | 1.9 fold | 4.1 fold | 1.7 | 1.7 | 1.7 | 19 µg/mL | – |
| mAb 82 (antibody, V domains shown) VH: QVQLVQSGAEVKKPGASVKVSCKASGGSFSTSAFYWVRQAPGQGLEWMGWINPYTGGTNYAQKFQGRVTMTRDTSTSTVYMELSSLRSEDTAVYYCARSRALYGSGSYFDYWGQGTLVTVSS VL: DIQMTQSPSSLSASVGDRVTITCRASQVISNYLAWYQQKPGKAPKLLIYDASNLETGVPSRFSGSGSGTDFTLTISSLQPEDFATYYCQQSFSPPPTFGQGTRLEIKR | – | 0.2 fold | – | -5.7 fold | 1.1 fold | 0.5 | 0.8 | – | – | -8.1 fold |
| mAb 324 (antibody, V domains shown) VH: QVQLVQSGAEVKKPGASVKVSCKASGGTFNNYGISWVRQAPGQGLEWMGWMNPNSGNTGYAQKFQGRVTMTRDTSTSTVYMELSSLRSEDTAVYYCARVGDYGDYIVSPFDLWGRGTLVTVSS VL: DIQMTQSPSSLSASVGDRVTITCRASQSITTYLNWYQQKPGKAPKLLIYDASNLETGVPSRFSGSGSGTDFTLTISSLQPEDFATYYCQQSYSTPPTFGQGTKVEIKR | 2.6 fold | -0.4 fold | – | -0.6 fold | -1 fold | – | 0.4 | 0.3 | 21 µg/mL | 0.8 fold |
| mAb 52 (antibody, V domains shown) VH: QVQLVQSGAEVKKPGSSVKVSCKASGYTFTSYGISWVRQAPGQGLEWMGGIIPMFGTTNYAQKFQGRVTITADKSTSTAYMELSSLRSEDTAVYYCARDRGDTIDYWGQGTLVTVSS VL: DIQMTQSPSSLSASVGDRVTITCRASQGISNNLNWYQQKPGKAPKLLIYAASSLESGVPSRFSGSGSGTDFTLTISSLQPEDFATYYCQQGNGFPLTFGPGTKVDIKR | 0.4 fold | – | > 100 µg/mL | 1.1 fold | 1.8 fold | 1.4 | 1.5 | 1.5 | 6.2 µg/mL | – |
| mAb 236 (antibody, V domains shown) VH: QVQLVQSGAEVKKPGASVKVSCKASGGTFTSYGINWVRQAPGQGLEWMGWMNPNSGNTGYAQKFQGRVTMTRDTSTSTVYMELSSLRSEDTAVYYCASRGIQLLPRGMDVWGQGTTVTVSS VL: not shown | 0.7 fold | 1.9 fold | – | 1.4 fold | 2.1 fold | – | 0.4 | 0.3 | 5.5 µg/mL | -0.6 fold |
